Values belong to the binder of their own block, whether it stands above or below them.
Experiments:
[1] = target: T1, deamidase inhibitor from Chryseobacterium sp-62563
T1 chain: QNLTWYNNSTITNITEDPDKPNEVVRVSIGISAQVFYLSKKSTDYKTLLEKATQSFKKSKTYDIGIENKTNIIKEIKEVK

[2] = target: T2, active deamidase from Chryseobacterium sp-62563 (Chryseobacterium sp-62563); test: nanoDSF at 330 nm, Tm of the deamidase/inhibitor complex; active deamidase alone (SEQ ID NO: 4) gave 66.3° C.
T2 construct: Protein-glutamine glutaminase (EC 3.5.1.44), called 'active deamidase'
T2 chain: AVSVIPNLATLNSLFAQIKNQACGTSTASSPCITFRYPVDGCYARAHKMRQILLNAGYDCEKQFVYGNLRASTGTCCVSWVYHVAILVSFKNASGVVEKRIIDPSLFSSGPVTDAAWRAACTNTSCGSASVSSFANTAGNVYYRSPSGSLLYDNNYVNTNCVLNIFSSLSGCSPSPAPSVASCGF
Description: 60 μL sample was transferred in replicates to a black-bottomed 384 well plate, and the plate was briefly centrifugated to remove potential air bubbles.
The thermal unfolding temperature of the samples was analyzed using a Prometheus NT.Plex system from NanoTemper Technologies GmbH, with the following settings: [0305] (i) Temperature scan rate: 3.3° C. per minute; and [0306] (ii) Temperature scan interval: 20-95° C.
Using the nanoDSF procedure, as described in Example 2, the thermal unfolding temperature of an active deamidase and the corresponding deamidase/inhibitor complex was measured.

B1: active deamidase from Chryseobacterium sp-62563 (protein)
chain: T2 chain
- deamidase activity (% initial rate), fluorescence substrate FITC-PP-Dnp with glutamyl endopeptidase [1]: the deamidase activity (% initial rate) was significantly reduced

- NanoDSF thermal unfolding temperature [2]: 70.1 ° C.
B2: deamidase inhibitor from Chryseobacterium sp-62563 (other)
chain: T1 chain
